Results on 16 molecules are retold here after patent US20180118802A1 (published 2018).

B2: LRP2 CR89 (receptor)
chain: not shown
notes: domain: CR89; also called YVWR; not shown: N-terminal hexahistidine and S-peptide of pET30(+)a

The target of one test is T1, RAP-GDNF (UniProt P30533 35-353; P39905 78-211, limits assumed).
T1 construct: also called RAP-GDNF fusion
T1 sequence (looked up): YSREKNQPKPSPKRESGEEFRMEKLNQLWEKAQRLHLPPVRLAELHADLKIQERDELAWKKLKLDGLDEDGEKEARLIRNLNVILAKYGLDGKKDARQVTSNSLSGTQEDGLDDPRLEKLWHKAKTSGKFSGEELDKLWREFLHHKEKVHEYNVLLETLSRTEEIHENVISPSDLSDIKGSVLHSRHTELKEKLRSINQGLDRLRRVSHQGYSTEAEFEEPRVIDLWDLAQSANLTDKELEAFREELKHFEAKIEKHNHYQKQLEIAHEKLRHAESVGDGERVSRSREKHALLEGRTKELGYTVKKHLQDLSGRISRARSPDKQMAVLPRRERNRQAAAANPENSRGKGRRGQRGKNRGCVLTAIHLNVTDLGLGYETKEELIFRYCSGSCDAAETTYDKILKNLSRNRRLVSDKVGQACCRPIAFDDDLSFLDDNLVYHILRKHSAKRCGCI
Nature of the test: solid-phase assay, RAP-GDNF coated, serial dilutions of GFRα-1 (FIG. 12).

In test [1] the target is T2, RAP d3 (human, UniProt P30533 235-353).
T2 construct: also called wild-type RAP d3
T2 sequence: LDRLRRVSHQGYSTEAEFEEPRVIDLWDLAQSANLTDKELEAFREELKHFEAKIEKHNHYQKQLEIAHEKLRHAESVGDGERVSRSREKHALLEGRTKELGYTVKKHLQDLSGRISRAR
Nature of the test: solid-phase binding assay, CR protein coated, anti-RAP detection. An excerpt:
(§1) Alternatively, the affinity differences between MegaRAP I d3 and MegaRAP1 d3 E270K may have been insufficient to alloW the latter to predominate upon iterative panning. A double revertant, T213S, E270K, had binding behavior that was not distinguishable from MegaRAP1 d3 in our assays. […] The binding behavior of the K251E, E270K double revertant implies a strong dependence of the affinity of MegaRAP1 d3 for LRP2 CR89 on the E251K mutation. […] Therefore, the K256A mutation in MegaRAP1 d3 is a crucial determinant of the ability of this variant to discriminate between the two receptor fragments, exerting its effect by negatively impacting affinity for LRP1 CR3-5 while at the same time improving affinity for LRP2 CR89.

Test [2] has as its target B2. Described as above. As to the method: (§2) Wells were washed with TBSTC and bound ligands detected with polyclonal anti-RAP (BP41/42, 1:1,000, BioMarin). Excess primary antibody was removed and wells washed before incubation with the secondary antibody, HRP-conjugated goat anti rabbit IgG (Bio-Rad). After washing, TMB substrate solutions (Bio-Rad) were added to detect HRP. Color development was stopped with 1N HCl. Absorption at 450 nm was measured with a microplate spectrophotometer (Molecular Devices). Data were plotted and Kd values derived by non-linear regression with the assumption of single-site binding (GraphPad Prism).
(§3) Next, the binding of RAP d3 and MegaRAP1 d3 proteins to LRP1 CR3-5 and LRP2 CR89 was assessed. […] In all cases, 10 mM EGTA prevented binding of both RAP d3 and MegaRAP1 d3 to CR proteins. Since calcium was the only divalent metal ion present in the binding buffer, this observation is consistent with both RAP d3 and MegaRAP1 d3 binding to calcium-loaded CR pairs. […] Therefore, wild-type RAP d3 and MegaRAP1 d3 have inverted binding preferences for these two receptor fragments.
Target sequence in this assay (P98164 1025-1102): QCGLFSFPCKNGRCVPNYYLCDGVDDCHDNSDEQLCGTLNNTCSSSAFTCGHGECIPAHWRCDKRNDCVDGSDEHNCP

The target of test [3] is T2, RAP d3. The description is as above. As to the method: Solid phase binding assays—Purified, refolded CR protein (1 μg) was bound to Nunc Maxisorp™ 96-well plates in TBS pH 8 supplemented with 5 mM CaCl₂ (TBSC) overnight at 4° C. Wells were washed with TBSC and then blocked with TBSC containing 2% bovine serum albumin (BSA). RAP ligands were then incubated with the immobilized receptor at a range of concentrations for 2 hours in the above blocking buffer supplemented with 0.05% Tween-20 at room temperature. Control wells contained no added ligand. As an additional control, to determine whether the absence of calcium affected binding, 10 mM EGTA was included in the incubation medium for some samples. Wells were washed with TBSTC and bound ligands detected with polyclonal anti-RAP (BP41/42, 1:1,000, BioMarin). Excess primary antibody was removed and wells washed before incubation with the secondary antibody, HRP-conjugated goat anti rabbit IgG (Bio-Rad). After washing, TMB substrate solutions (Bio-Rad) were added to detect HRP. Color development was stopped with 1N HCl. Absorption at 450 nm was measured with a microplate spectrophotometer (Molecular Devices). Data were plotted and Kd values derived by non-linear regression with the assumption of single-site binding (GraphPad Prism).
One premise of this work was that amino acids at A, C, A′ and C′ within the calcium-binding loops of a CR pair were key determinants of binding affinity for RAP and would be similarly important for binding of RAP variants. To test this idea, mutant LRP2 CR89 were prepared in which the native, non-canonical residues at these positions were sequentially substituted with the non-native, canonical residues. As defined above, the A, C, A′, C′ string for LRP2 CR89 is YVWR. Mutants included LRP2 CR89 Y1042W (WVWR), LRP2 CR89 V1047D (YDWR), LRP2 CR89 R1088D (YVWD), LRP2 CR89 V1047D R1088D (YDWD), LRP2 CR89 Y1042W V1047D R1088D (WDWD), LRP2 CR89 Y1042W V1047D (WDWR), LRP2 CR89 Y1042W R1088D (WVWD). Binding to both RAP d3 and MegaRAP1 d3 were measured for each LRP2 CR89 mutant by solid-phase assay.
The source holds these as a separate data set.

The target in a further test is T3, LRP1 CR3-5 (human, UniProt Q07954 852-973).
T3 construct: range 852-973; not shown: N-terminal hexahistidine and S-peptide of pET30(+)a
T3 sequence (Q07954 852-973, form in doubt): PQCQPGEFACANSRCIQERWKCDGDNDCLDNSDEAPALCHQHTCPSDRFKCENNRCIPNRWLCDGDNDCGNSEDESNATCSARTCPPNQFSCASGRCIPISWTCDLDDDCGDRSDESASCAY
The test is described as above. On the procedure:
as §2, §3

Test [4] has as its target B2. The description is as above.
Text: as §1
Target sequence in this assay (P98164 1025-1102): as the sequence (P98164 1025-1102) above
The source holds these as a separate data set.

B1: GFRα-1 (receptor)
chain: DRLDCVKASDQCLKEQSCSTKYRTLRQCVAGKETNFSLASGLEAKDECRSAMEALKQKSLYNCRCKRGMKKEKNCLRIYWSMYQSLQGNDLLEDSPYEPVNSRLSDIFRVVPFISDVFQQVEHIPKGNNCLDAAKACNLDDICKKYRSAYITPCTTSVSNDVCNRRKCHKALRQFFDKVPAKHSYGMLFCSCRDIACTERRRQTIVPVCSYEEREKPNCLNLQDSCKTNYICRSRLADFFTNCQPESRSVSSCLKENYADCLLAYSGLIGTVMTPNYIDSSSLSVAPWCDCSNSGNDLEECLKFLNFFKDNTCLKNAIQAFGNGSDVTVWQPAFPVQTTTATTTTALRVKNKPLGPAGSENEIPTHVLPPCANLQAQKLKSNVSGNTHLCISNGNYEKEGLGASS
Take B1: the Kd with RAP-GDNF is roughly 5 ng/mL.
Consider B2, for which the Kd in the test with RAP d3 [1] is greater than 300 nM.

B3: RAP d3 E217K (ligand, not shown: small tags and cut ends)
chain: LDRLRRVSHQGYSTEAKFEEPRVIDLWDLAQSANLTDKELEAFREELKHFEAKIEKHNHYQKQLEIAHEKLRHAESVGDGERVSRSREKHALLEGRTKELGYTVKKHLQDLSGRISRAR
notes: Forward mutant of RAP d3; also called RAP E217K
On to B3, for which the binding result with LRP2 CR89 [2] is given as “no binding”.

B4: LRP2 CR89 V1047D (receptor, not shown: small tags and cut ends)
chain: PTEQCGLFSFPCKNGRCVPNYYLCDGDDDCHDNSDEQLCGTLNNTCSSSAFTCGHGECIPAHWRCDKRNDCVDGSDEHNCPTHA
notes: also called YDWR
As to B4, the binding result with RAP d3 [3] is “no binding”.

B5: LRP2 CR89 Y1042W (receptor, not shown: small tags and cut ends)
chain: PTEQCGLFSFPCKNGRCVPNYWLCDGVDDCHDNSDEQLCGTLNNTCSSSAFTCGHGECIPAHWRCDKRNDCVDGSDEHNCPTHA
notes: also called WVWR
With B5, in the test with RAP d3 [3], the binding result was “no binding”.

B6: LRP2 CR89 R1088D (receptor, not shown: small tags and cut ends)
chain: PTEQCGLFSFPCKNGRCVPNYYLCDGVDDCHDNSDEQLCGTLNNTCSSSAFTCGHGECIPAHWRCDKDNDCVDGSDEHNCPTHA
notes: also called YVWD
Take B6: the binding result in the test with RAP d3 [3] is on record as “no binding”.

B7: RAP d3 K256A, K270E (ligand, not shown: small tags and cut ends)
chain: LDRLRRVSHQGYSTEAEFEEPRVIDLWDLAQSANLTDKELEAFREELKHFEAKIEAHNHYQKQLEIAHEELRHAESVGDGERVSRSREKHALLEGRTKELGYTVKKHLQDLSGRISRAR
notes: Forward mutant of RAP d3; also called RAP K256A, K270E
B7: the binding result with LRP2 CR89 [2] is listed as “no binding”.

B8: RAP d3 E251K, K270E (ligand, not shown: small tags and cut ends)
chain: LDRLRRVSHQGYSTEAEFEEPRVIDLWDLAQSANLTDKELEAFREELKHFKAKIEKHNHYQKQLEIAHEELRHAESVGDGERVSRSREKHALLEGRTKELGYTVKKHLQDLSGRISRAR
notes: Forward mutant of RAP d3; also called RAP E251K, K270E
Regarding B8, the binding result with LRP2 CR89 [2] is reported as “no binding”.

B9: MegaRAP1 d3 E270K (ligand, not shown: small tags and cut ends)
chain: LDRLRRVSHQGYTTEAKFEEPRVIDLWDLAQSANLTDKELEAFREELKYFKAKIEAHNHYQKQLEIAHEKLRHAESVGDGERVSRSREKHALLEGRTKELGYTVKKHLQDLSGRISRAR
notes: Revertant of MegaRAP1 d3; also called MegaRAP1 E270K
For B9, in the test with LRP1 CR3-5, the “% max” value was determined as 85%.

B10: RAP d3 H249Y (ligand, not shown: small tags and cut ends)
chain: LDRLRRVSHQGYSTEAEFEEPRVIDLWDLAQSANLTDKELEAFREELKYFEAKIEKHNHYQKQLEIAHEKLRHAESVGDGERVSRSREKHALLEGRTKELGYTVKKHLQDLSGRISRAR
notes: Forward mutant of RAP d3; also called RAP H249Y
With B10, in the test with LRP2 CR89 [2], the binding result was “no binding”.

B11: RAP d3 E251K (ligand, not shown: small tags and cut ends)
chain: LDRLRRVSHQGYSTEAEFEEPRVIDLWDLAQSANLTDKELEAFREELKHFKAKIEKHNHYQKQLEIAHEKLRHAESVGDGERVSRSREKHALLEGRTKELGYTVKKHLQDLSGRISRAR
notes: Forward mutant of RAP d3; also called RAP E251K
Consider B11, for which, in the test with LRP2 CR89 [2], the binding result is recorded as “no binding”.

B12: RAP d3 K270E (ligand, not shown: small tags and cut ends)
chain: LDRLRRVSHQGYSTEAEFEEPRVIDLWDLAQSANLTDKELEAFREELKHFEAKIEKHNHYQKQLEIAHEELRHAESVGDGERVSRSREKHALLEGRTKELGYTVKKHLQDLSGRISRAR
notes: Forward mutant of RAP d3; also called RAP K270E
Turning to B12, in the test with LRP2 CR89 [2], the binding result was “no binding”.

B13: MegaRAP1 d3 K251E (ligand, not shown: small tags and cut ends)
chain: LDRLRRVSHQGYTTEAKFEEPRVIDLWDLAQSANLTDKELEAFREELKYFEAKIEAHNHYQKQLEIAHEELRHAESVGDGERVSRSREKHALLEGRTKELGYTVKKHLQDLSGRISRAR
notes: Revertant of MegaRAP1 d3; also called MegaRAP1 K251E
Regarding B13, the binding result with LRP2 CR89 [2] is “no binding”.

B14: MegaRAP1 d3 A256K, E270K (ligand, not shown: small tags and cut ends)
chain: LDRLRRVSHQGYTTEAKFEEPRVIDLWDLAQSANLTDKELEAFREELKYFKAKIEKHNHYQKQLEIAHEKLRHAESVGDGERVSRSREKHALLEGRTKELGYTVKKHLQDLSGRISRAR
notes: Double revertant of MegaRAP1 d3; also called MegaRAP1 A256K, E270K
Take B14: the “fold loss of affinity” value with LRP2 CR89 [4] came out at 2 fold.

B15: LRP2 CR89 V1047D R1088D (receptor, not shown: small tags and cut ends)
chain: PTEQCGLFSFPCKNGRCVPNYYLCDGDDDCHDNSDEQLCGTLNNTCSSSAFTCGHGECIPAHWRCDKDNDCVDGSDEHNCPTHA
notes: also called YDWD
On to B15, for which the binding result with RAP d3 [3] is recorded as “no binding”.

B16: MegaRAP1 d3 A256K (ligand, not shown: small tags and cut ends)
chain: LDRLRRVSHQGYTTEAKFEEPRVIDLWDLAQSANLTDKELEAFREELKYFKAKIEKHNHYQKQLEIAHEELRHAESVGDGERVSRSREKHALLEGRTKELGYTVKKHLQDLSGRISRAR
notes: Revertant of MegaRAP1 d3; also called MegaRAP1 A256K
Regarding B16, in the test with LRP2 CR89 [2], the binding result is “no binding”.
